Source: the supplement of paper PMC7125110
± gives the standard error. Fewer inactive variants are shown than the library holds.

B1: glmS ribozyme (parent)
chain: AUAAAAGCGCCAGAACUACAGAAAUGUAGUUGACGAGGAGGAGGUUUAUCGAAUUUUCGGCGGAUGCCUCCAAA

Variants of: B1
Experiment: self-cleavage kobs at 2500 uM GlcN6P; higher = faster cleavage; RNA array
Details: with glucosamine-6-phosphate
Procedure, shortened: (§1)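 A hybridised Cy3 probe tracked barcoded ribozyme variants, transcribed in situ by E. coli RNA polymerase on sequenced MiSeq chips, at 37 °C. The variants received 40 μM to 10 mM glucosamine-6-phosphate in HEPES/KCl/Mg(OAc)2 buffer. kobs came from decay fits and kcat and KM from weighted Michaelis–Menten fits.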

Variant	self-cleavage kobs at 2500 uM GlcN6P
G9U A39G G44C C67G	< 1e-05 s⁻¹
C10U A12C C70A	< 1e-05 s⁻¹
C10A U30C U55C	< 1e-05 s⁻¹
C10G A42G G43A	< 1e-05 s⁻¹
C10U C16G C61U C71U	< 1e-05 s⁻¹
C10A G40U U56A U65C	< 1e-05 s⁻¹
G9U U31A C67A C70U	< 1e-05 s⁻¹
G7U A33U G35C G44C U45G G66U	< 1e-05 s⁻¹
C8A C58U A64U C67G	< 1e-05 s⁻¹
G7U U55C C71A	< 1e-05 s⁻¹
C8A G37A A42C	< 1e-05 s⁻¹
C11A A52G C70U	8.24e-05 ± 3.2e-05 s⁻¹
C10U C16U G37U G38A A39G C50G A64G U65C	0.000287 ± 0.00013 s⁻¹
C8G A42U U49C A52G	< 1e-05 s⁻¹
C10A A12U G37U G44U C50G A53G C68U	< 1e-05 s⁻¹
C10G G37C C67U	< 1e-05 s⁻¹
C10U A14G G44U	< 1e-05 s⁻¹
G7C C16U G29U C61U	< 1e-05 s⁻¹
G7C U45A G51U G59U	< 1e-05 s⁻¹
C8A G38A G63U C68U	< 1e-05 s⁻¹
A6U G9A C68U	< 1e-05 s⁻¹
C11G G41U A48C C70G	< 1e-05 s⁻¹
C8G U69G	< 1e-05 s⁻¹

Variant	self-cleavage kobs at 2500 uM GlcN6P
C8G A14G G44C U54A C71U	< 1e-05 s⁻¹
C11U U47C G62A	< 1e-05 s⁻¹
C8G A12C A42U C68U	< 1e-05 s⁻¹
G7U G43C A53U A64G	< 1e-05 s⁻¹
C11G G51C A64C	< 1e-05 s⁻¹
C8G G37C G43A G59A	< 1e-05 s⁻¹
C8U G29C G60U	< 1e-05 s⁻¹
C8U C11U A12U A36C A39G	< 1e-05 s⁻¹
G7U G32U U54C C68G	< 1e-05 s⁻¹
C10G U56C	< 1e-05 s⁻¹
A6U G13A G35C A52C	< 1e-05 s⁻¹
C10G G63C G66U	< 1e-05 s⁻¹
A12C U30A C50U G51C	< 1e-05 s⁻¹
A12C A36G C71U	< 1e-05 s⁻¹
C8U A14G C50U C71G	< 1e-05 s⁻¹
G7U A14C U56C	< 1e-05 s⁻¹
G7C G9U G59U	< 1e-05 s⁻¹
C10A C34G C68G	< 1e-05 s⁻¹
G7U C68A	< 1e-05 s⁻¹
G9C A42C A48C C58G C71G	< 1e-05 s⁻¹
C8A G13U A53G U65G	< 1e-05 s⁻¹
G9U C16A A42C U54A A64G C70U	< 1e-05 s⁻¹
A6U G32C C34U	< 1e-05 s⁻¹

Variant	self-cleavage kobs at 2500 uM GlcN6P
G7U C11U G13C A36U U56A	< 1e-05 s⁻¹
A6U G32C C34G U55G U56A	< 1e-05 s⁻¹
G9C A15U G66C C70G	< 1e-05 s⁻¹
A6U C58A C67A	< 1e-05 s⁻¹
C11A C34G U49A	< 1e-05 s⁻¹
G7C G51U A53U G60U	< 1e-05 s⁻¹
C8G C58U C61U G63U C68U	< 1e-05 s⁻¹
C11U G40A U49C G59C	< 1e-05 s⁻¹
G7A A36G G38A U47G A53G	< 1e-05 s⁻¹
G9A G13C A33C G38C C61U G63U G66C	< 1e-05 s⁻¹
G9A G29C G38C A64U	< 1e-05 s⁻¹
C11A A52U U65C	< 1e-05 s⁻¹
C10U A33C A36U U54A	< 1e-05 s⁻¹
G7U G59A C61U	< 1e-05 s⁻¹
C8A C11U C70U	< 1e-05 s⁻¹
A12G A36C G62U	< 1e-05 s⁻¹
G7A C34U A36C	< 1e-05 s⁻¹
A12C G13C A42U U49C	< 1e-05 s⁻¹
G9C C16G G29U	< 1e-05 s⁻¹
G7A C8G C10G G35C	< 1e-05 s⁻¹
C11A G51C G63U	< 1e-05 s⁻¹
C10G A12U G13C G32A	< 1e-05 s⁻¹
C11G G60C G63C	< 1e-05 s⁻¹

Variant	self-cleavage kobs at 2500 uM GlcN6P
A12C A15U G43C G51A	< 1e-05 s⁻¹
C8G A52G G59A	< 1e-05 s⁻¹
C11U A12C G32U	< 1e-05 s⁻¹
C10A A12U U31G U46C	< 1e-05 s⁻¹
C11U A39U U49A U69C	< 1e-05 s⁻¹
G9U C11G A12G A48U G51C	< 1e-05 s⁻¹
C10A G51A G66A C68A C70A	7.81e-05 ± 3.1e-05 s⁻¹
C10A C16U A48U	< 1e-05 s⁻¹
G9A A14C G43U U46A	< 1e-05 s⁻¹
G7C G29A A36U C71A	< 1e-05 s⁻¹
G7C C11A C16U	< 1e-05 s⁻¹
A12G A36C G38A A64U	< 1e-05 s⁻¹
C10G C19A A39U U69C	< 1e-05 s⁻¹
C11U A15G G37A G60A	< 1e-05 s⁻¹
G9U C11U G29U A52U	< 1e-05 s⁻¹
C8U A39G G60C	< 1e-05 s⁻¹
G9A C10U U30A G44A	< 1e-05 s⁻¹
C11G U56G G59U	4.72e-05 ± 2e-05 s⁻¹
A6U G7C C8G	< 1e-05 s⁻¹
G7A A42U	< 1e-05 s⁻¹
G9U C16G G29C A52U G59U	< 1e-05 s⁻¹
C10U G40A C70G	< 1e-05 s⁻¹
C11A C34A A42C C70A	< 1e-05 s⁻¹

Variant	self-cleavage kobs at 2500 uM GlcN6P
C8U C58G C70U	< 1e-05 s⁻¹
C8U A33C U45A A52U	< 1e-05 s⁻¹
C10A G35A G40C	< 1e-05 s⁻¹
G7U G43A U47A U57C A64U	< 1e-05 s⁻¹
C8U C16U G37C A39G U54C	< 1e-05 s⁻¹
C11G A33U U46G G51C U54A	< 1e-05 s⁻¹
A12C C16U A39U	0.00306 ± 0.00084 s⁻¹
C8U U55G C61U C68A	< 1e-05 s⁻¹
G7U G41A U47G C71G	< 1e-05 s⁻¹
C10A G44U U49G U54C G60U C67U	< 1e-05 s⁻¹
G7U C11U A12U G38C G43U U54A	< 1e-05 s⁻¹
G7U G9U U31C U56C	< 1e-05 s⁻¹
C8G C10U C11U G13A C34G	< 1e-05 s⁻¹
C10U A36U G40U	< 1e-05 s⁻¹
C8G A12G G51U C58U C67A C68U	0.000214 ± 7.9e-05 s⁻¹
C10G C11G G13U U69C C70G	< 1e-05 s⁻¹
G7A A33U C61G C70G	< 1e-05 s⁻¹
G7C U31C U46C G66U	< 1e-05 s⁻¹
C10A G13U U56C U69G	< 1e-05 s⁻¹
G7U G13U A42U G44C	< 1e-05 s⁻¹
G7A A33C C58U U65G C70G	< 1e-05 s⁻¹
C10U G26A	7.4e-05 ± 2.8e-05 s⁻¹
G9C G40U G51U A52U	< 1e-05 s⁻¹

Variant	self-cleavage kobs at 2500 uM GlcN6P
C11A U31A A33G	< 1e-05 s⁻¹
C11A G38C G40U G59A	< 1e-05 s⁻¹
G7C A52U U54G C61U	< 1e-05 s⁻¹
A12C C16U A36C	< 1e-05 s⁻¹
A12C A52U C67U	0.000185 ± 4.2e-05 s⁻¹
C10G G43U U46C	< 1e-05 s⁻¹
C10A A12C U30A U31A	5.52e-05 ± 2.3e-05 s⁻¹
C11G G29U A48U G51U C71G	0.000485 ± 0.00016 s⁻¹
G7U U31C A36U A39C A42G G59U G66U	< 1e-05 s⁻¹
G7A G13A G40C U47G	< 1e-05 s⁻¹
C8A C10U A39G U57C	< 1e-05 s⁻¹
C8A G32U G37U	< 1e-05 s⁻¹
G9U C11U A33G G40U U69G	< 1e-05 s⁻¹
C8U C61A C68U	< 1e-05 s⁻¹
G7A G13A C34U	< 1e-05 s⁻¹
C8G C16A G43U G44U G62A	< 1e-05 s⁻¹
C10U A42C G43U C67A	< 1e-05 s⁻¹
G7A C8A G41U	< 1e-05 s⁻¹
G7A G38C A64C	< 1e-05 s⁻¹
G9C U45G C50U G59U	< 1e-05 s⁻¹
C11U U55A C58G	5.84e-05 ± 1.6e-05 s⁻¹
C11U U31C C50A	< 1e-05 s⁻¹
C8G A33G A42G U55G	< 1e-05 s⁻¹

Variant	self-cleavage kobs at 2500 uM GlcN6P
C8G C10G C70G	< 1e-05 s⁻¹
G7C G32U U45C U49C	< 1e-05 s⁻¹
C8G C11A A33U G44A C58U	< 1e-05 s⁻¹
C10U A15G G44U C50G	< 1e-05 s⁻¹
G9U A33G A53C	< 1e-05 s⁻¹
C11G C61A C68A	8.83e-05 ± 2.3e-05 s⁻¹
C11U U30C A52G A64U	< 1e-05 s⁻¹
G9C A15U U47G G51C G63C	< 1e-05 s⁻¹
C10G G13C A14G U31C U47A	< 1e-05 s⁻¹
C8A G9U A15C U31A G32A C70A	< 1e-05 s⁻¹
G7C G13U U31G G37C G59A G60U	< 1e-05 s⁻¹
C8U G43C A52U C70U	< 1e-05 s⁻¹
C8U C11G G13C	< 1e-05 s⁻¹
A6U G37C C68U	< 1e-05 s⁻¹
C11A A12U G40U	4.18e-05 ± 2.1e-05 s⁻¹
C8G A15G U31A G40C G63C	< 1e-05 s⁻¹
C8U G35A G63U	< 1e-05 s⁻¹
C10U U31A A39U G51C	< 1e-05 s⁻¹
G9C A48G C67U	< 1e-05 s⁻¹
C10A U45G U54G	< 1e-05 s⁻¹
C10G A15G C34A G37A	< 1e-05 s⁻¹
C11A G37A G38C	< 1e-05 s⁻¹
G7C C50U A64C C68A	< 1e-05 s⁻¹

Variants of: B1
Experiment: self-cleavage kobs at 10000 uM GlcN6P; higher = faster cleavage; RNA array
Details: with glucosamine-6-phosphate
Procedure, shortened: as §1

Variant	self-cleavage kobs at 10000 uM GlcN6P
C10U C16U G37U G38A A39G C50G A64G U65C	0.0013 ± 0.0004 s⁻¹
C8U C11U A12U A36C A39G	< 1e-05 s⁻¹
G7U G32U U54C C68G	< 1e-05 s⁻¹
C10G U56C	< 1e-05 s⁻¹
C11G G60C G63C	< 1e-05 s⁻¹
G7A A42U	< 1e-05 s⁻¹
G9U C16G G29C A52U G59U	< 1e-05 s⁻¹
C8G C10U C11U G13A C34G	< 1e-05 s⁻¹
G9U C11U A33G G40U U69G	< 1e-05 s⁻¹
C10U A42C G43U C67A	< 1e-05 s⁻¹
C8G C10G C70G	< 1e-05 s⁻¹
A6U G37C C68U	< 1e-05 s⁻¹
C11A A12U G40U	6.34e-05 ± 1.6e-05 s⁻¹
